Test results published in publication PMC12520364, “UBXN7 facilitates SARS-CoV-2 replication via inhibiting the K48-linked ubiquitination of viral N protein” (PLOS Pathogens, 2025).

What was measured:
[1] = molecular target: T1, Purified recombinant His-N protein from E. coli (SARS-CoV-2, UniProt P0DTC9 1-419); assay: pull-down; conditions: both partners purified
T1 construct: SARS-CoV-2 N protein, full-length N gene of NC_045512.2 in pET-28a(+); also called prokaryotic recombinant SARS-CoV-2 N protein; not shown: 6xHis, N-terminal, kept

[2] = molecular target: T2, Fc-tagged SARS-CoV-2 N protein (SARS-CoV-2, UniProt P0DTC9 1-419); assay: pull-down; conditions: both partners purified
T2 construct: also called N-Fc; SARS-CoV-2 N-Fc

| Binder | binding result [1] | binding result [2] |
| --- | --- | --- |
| purified HA-UBXN7 (natural protein, UniProt O94888 1-489, looked up, May be the same construct as m1 (pCAGGS-HA); source: purified) MAAHGGSAASSALKGLIQQFTTITGASESVGKHMLEACNNNLEMAVTMFLDGGGIAEEPSTSSASVSTVRPHTEEEVRAPIPQKQEILVEPEPLFGAPKRRRPARSIFDGFRDFQTETIRQEQELRNGGAIDKKLTTLADLFRPPIDLMHKGSFETAKECGQMQNKWLMINIQNVQDFACQCLNRDVWSNEAVKNIIREHFIFWQVYHDSEEGQRYIQFYKLGDFPYVSILDPRTGQKLVEWHQLDVSSFLDQVTGFLGEHGQLDGLSSSPPKKCARSESLIDASEDSQLEAAIRASLQETHFDSTQTKQDSRSDEESESELFSGSEEFISVCGSDEEEEVENLAKSRKSPHKDLGHRKEENRRPLTEPPVRTDPGTATNHQGLPAVDSEILEMPPEKADGVVEGIDVNGPKAQLMLRYPDGKREQITLPEQAKLLALVKHVQSKGYPNERFELLTNFPRRKLSHLDYDITLQEAGLCPQETVFVQERN | binds | – |
| Purified recombinant UBXN7-his protein (natural protein, UniProt O94888 1-489, looked up, The host of UBXN7-his is therefore told in two ways; also called His-tagged UBXN7; source: HEK293F, transfected, purified (Ni-NTA, Superdex200)) MAAHGGSAASSALKGLIQQFTTITGASESVGKHMLEACNNNLEMAVTMFLDGGGIAEEPSTSSASVSTVRPHTEEEVRAPIPQKQEILVEPEPLFGAPKRRRPARSIFDGFRDFQTETIRQEQELRNGGAIDKKLTTLADLFRPPIDLMHKGSFETAKECGQMQNKWLMINIQNVQDFACQCLNRDVWSNEAVKNIIREHFIFWQVYHDSEEGQRYIQFYKLGDFPYVSILDPRTGQKLVEWHQLDVSSFLDQVTGFLGEHGQLDGLSSSPPKKCARSESLIDASEDSQLEAAIRASLQETHFDSTQTKQDSRSDEESESELFSGSEEFISVCGSDEEEEVENLAKSRKSPHKDLGHRKEENRRPLTEPPVRTDPGTATNHQGLPAVDSEILEMPPEKADGVVEGIDVNGPKAQLMLRYPDGKREQITLPEQAKLLALVKHVQSKGYPNERFELLTNFPRRKLSHLDYDITLQEAGLCPQETVFVQERN | – | binds |
